From the supplement of paper PMC9170038

Test system: K4 kissing-loop RNA reporter
Experiment: apparent KD of K4 kissing-loop reporter; higher = weaker reporter binding
Conditions: Eterna round: R107
Experimental: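 RNA-MaP round R107: designed RNA switches with theophylline, tryptophan, arginine or FMN aptamers are transcribed on-chip within common flanks. They are titrated with a labelled K4 kissing-loop RNA reporter in RNA-MaP buffer (100 mM Tris pH 7.5, 80 mM KCl, 4 mM MgCl2), without ligand or with the indicated ligand. Median apparent KD per design.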

[1] = input ligand: theophylline 20 uM
[2] = input ligand: tryptophan 2.4 mM
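Note: bound reporter read as fluorescence of individual clusters on recovered sequencing chips by microscopy, with normalized cluster intensities fitted with a binding model.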

Sequence | apparent KD of K4 kissing-loop reporter (input ligand: FMN 200 uM) [nM] | apparent KD of K4 kissing-loop reporter (input ligand: arginine 13.2 mM) [nM] | apparent KD of K4 kissing-loop reporter (input ligand: none) [nM] | apparent KD of K4 kissing-loop reporter [1] [nM] | apparent KD of K4 kissing-loop reporter [2] [nM]
CCAGGUGGAAAAGGAUAUCUAGGAGUGAUGUUCCAUAUGAAAUUAGUUUAUCACCAAACGUCGACCAGAGAAGGUUUCCCAAUUU [theeternabot_exclusion_KL_FMN_B_31] | 246 | 252 | 287 | 489 | 254
AACGGCCAGUCGGCCGCCACUCCAAGCAGUGAUGUUGCUAAGUUUCUAAAAGAGUGAUGUUCUUAGAGGACCGGGACUGAUGUAA [Exclusion Tryptophan B Gf 6] | 130 | 155 | 154 | 161 | 104
AGUGUCAGUGAUGUUGAGAAGAUGGGUACUAAGGAUAUGCGGCGAUGCAGAAGGUAGAAUGAUUAGUUCGCAUGUUAUGAGGGAU [theeternabot_exclusion_KL_FMN_A_46] | 484 | 364 | 573 | 487 | 336
UUGUUUGGUUGAGAGGUUGGGCGAGAUGAUACCAGUAUAGUAUUGUACCCUUGGCAGCAUAUGAGAGAUAUAGUGAUGUUGUAUG [SSTheophA.X] | 521 | 358 | 529 | 532 | 411
UGGAGUUGACGAAAAGUCAACUCCUGAGAUACCAGUGACGAAAGUCACCCUUGGCAGCUCACUGCCAGUGAUGUUGGUAUAUAAA [#OpenEnded 4] | 82.6 | 71.4 | 61 | 146 | 124
UCCAUGCGCGCACGGUACUUGCCCGCAUAUCGAGGACCGGUACGGCCGCCACUCGUGCCAGUGAUGUUGGCCGGAGAGCCUUAUG [theeternabot_sameState_KL_Trp_A_22] | 476 | 349 | 475 | 449 | 524
CAGAUAACCUAGGAUACCAGCGUCGCUGACAGGUCGCUGGAGAAGUACAGUGAUGUUGUGCGCCCUUGGCAGCCUGUUUACACAG [theeternabot_exclusion_KL_Theo_B_32] | 255 | 204 | 223 | 207 | 198
GCUGAUCGUUUUCCACGAUGCGGCUAAUAAAAGGAUAUUGGUAUAUCAAGAAGGUUUGUUCUGUGUAGUGAUGUUGCACCGUGUU [theeternabot_sameState_KL_FMN_A_28] | 77.5 | 101 | 80.5 | 111 | 72.5
UAUAUAGUGACGGCCGCCACUAUAUUAAUGUUUUUGUUAGAGUGAUGUUUUGUUUUAUAUUUUUAUAGGACCGGGUUAUAUGUUA [klppxmullin] | 497 | 377 | 626 | 480 | 404
AAAGGUUGAAGUGAUACCAGACUAGCAGUGAUGUUGCGCCAAAGUGAGUGAUGUUCACCAGUCCCUUGGCAGCACAUGCCUAAAG [Same State Theophylline B GF 13] | 985 | 890 | 1210 | 1310 | 811
AAUAUAUAGUGAAGGAGCGCGAUAAGCAGUGAUGUUGCUUAGCUAUUAUUCAUUAUUUUUACGCAGGUAGGUCGCACUAUAUAUA [JR_ExcArginiB_Sub014] | 138 | 128 | 144 | 133 | 139
GCUACUGCUGAAGGAUAUAUCAAUAGAGUGAUGUUCUAUGUCGGUAGCCCGAAAGGGCUACCGACGGUAGAAGGUCAGCAGUAGC | 182 | 1090 | 1560 | 1120 | 960
UGGCAGGUAUCGGCCGCCACUUUCUAGUACAUACGCAUAUCUUUACCAUCAGUGAUGUUGAUCAUAAGGACCGGGAUACAUCAGG [theeternabot_exclusion_KL_Trp_B_22] | 243 | 208 | 249 | 220 | 200
ACGUCCGGAUUAAUCGUGGGCAUGGUGGAUACCAGUUCUUUAAUGAACCCUUGGCAGCCACAUGAGUGAUGUUCAUGUGCGAUGA [KL-XTheo-A9 #analogue] | 145 | 117 | 141 | 187 | 140
GGGUGGUAGGCGGCCGCCACUCUGAGCACCCACUGAGUGAUGUUCGUGGCGUAAGCCUGUUCUUAGAGGACCGGGUUUGUUGUUC [Exclusion Tryptophan B GF 17] | 207 | 88 | 178 | 128 | 144
GGCUUGCCAGUGAUGUUGGCAUAUUCUGAAGGAGCGCGUGAAAACGCAGGUAGGUCGCAGAACCUUGCCAACUAUUUUAGUUGCC [Ex Arginine A K4 26] | 242 | 210 | 237 | 334 | 210
UACAUUGCAGUCUUCUUCGUCCUAGAAGACUAGGAUAUCAGGAAACUGAGAAGGAGUCUCUGCAGUGAUGUUGCAGCUAGGACGA [[K]'-[F2]'-[F1]'-[F1]-[F2]-[K1]-[K2]-[F]''_Design1] | 128 | 134 | 103 | 157 | 126
